# Test results reported in article PMC6921966 (2019).
# Molecular target: M2e-VHH-23m (llama)
# Test: ITC
# Sequence of M2e-VHH-23m (llama) (VHH, as listed by the source): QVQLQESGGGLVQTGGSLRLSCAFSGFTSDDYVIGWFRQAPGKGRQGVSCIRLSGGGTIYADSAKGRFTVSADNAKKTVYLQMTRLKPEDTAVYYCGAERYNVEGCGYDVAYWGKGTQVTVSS
binder,measurement,value
SLLTEVETPIRNEWGCRCNDSSD [human H3N2 M2e peptide],Ka,1.37e+06 M⁻¹
